Source: publication PMC4190070 (Nature structural & molecular biology, 2014)

Target: T1, SA2–Scc1 cohesin subcomplex (SA2 80–1060, Scc1 281–420), purified recombinant (human, UniProt Q8N3U4;O60216)
T1 sequence 1: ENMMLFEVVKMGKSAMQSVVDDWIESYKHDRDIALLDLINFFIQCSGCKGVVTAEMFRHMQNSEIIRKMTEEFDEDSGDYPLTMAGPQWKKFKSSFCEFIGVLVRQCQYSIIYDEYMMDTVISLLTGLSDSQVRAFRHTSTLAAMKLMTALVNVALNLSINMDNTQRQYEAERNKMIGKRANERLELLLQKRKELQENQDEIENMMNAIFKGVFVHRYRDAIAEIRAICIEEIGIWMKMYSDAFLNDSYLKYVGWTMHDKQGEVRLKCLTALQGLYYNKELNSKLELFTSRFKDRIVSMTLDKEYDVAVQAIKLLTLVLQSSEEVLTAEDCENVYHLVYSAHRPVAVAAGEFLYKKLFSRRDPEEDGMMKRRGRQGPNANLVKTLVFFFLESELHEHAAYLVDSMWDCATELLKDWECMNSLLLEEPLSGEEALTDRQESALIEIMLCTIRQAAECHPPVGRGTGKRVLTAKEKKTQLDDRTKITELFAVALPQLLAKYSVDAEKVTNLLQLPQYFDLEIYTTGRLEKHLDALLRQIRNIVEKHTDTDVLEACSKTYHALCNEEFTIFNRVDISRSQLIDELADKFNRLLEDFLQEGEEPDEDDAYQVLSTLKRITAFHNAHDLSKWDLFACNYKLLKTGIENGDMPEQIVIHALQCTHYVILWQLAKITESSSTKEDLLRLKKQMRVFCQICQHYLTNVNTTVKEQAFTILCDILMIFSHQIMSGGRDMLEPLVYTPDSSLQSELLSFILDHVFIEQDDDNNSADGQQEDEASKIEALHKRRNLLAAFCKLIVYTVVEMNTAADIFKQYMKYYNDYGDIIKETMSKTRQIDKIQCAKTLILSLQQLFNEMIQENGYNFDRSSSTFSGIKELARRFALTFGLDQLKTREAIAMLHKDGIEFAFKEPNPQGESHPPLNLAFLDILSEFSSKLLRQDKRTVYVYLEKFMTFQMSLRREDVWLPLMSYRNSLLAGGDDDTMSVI
T1 sequence 2: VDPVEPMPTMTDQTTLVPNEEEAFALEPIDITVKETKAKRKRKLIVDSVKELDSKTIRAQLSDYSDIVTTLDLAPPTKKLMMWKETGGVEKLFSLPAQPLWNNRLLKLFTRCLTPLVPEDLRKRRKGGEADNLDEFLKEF
Assay: ITC

Kd: 618 nM
stoichiometry N: 1
B1: unphosphorylated Sgo1 peptide (residues 313–353) (peptide)
peptide: KSENKKTVPQKKMHKSVSSNDAYNFNLEEGVHLTPFRQKVSC
